Measurements published in patent US20250361296A1 (BIOCYTOGEN PHARMACEUTICALS BEIJING, published 2025).

T1: human SIGLEC15 on CHO-S-hSIGLEC15 cells (human, UniProt Q6ZMC9 20-328)
T1 sequence: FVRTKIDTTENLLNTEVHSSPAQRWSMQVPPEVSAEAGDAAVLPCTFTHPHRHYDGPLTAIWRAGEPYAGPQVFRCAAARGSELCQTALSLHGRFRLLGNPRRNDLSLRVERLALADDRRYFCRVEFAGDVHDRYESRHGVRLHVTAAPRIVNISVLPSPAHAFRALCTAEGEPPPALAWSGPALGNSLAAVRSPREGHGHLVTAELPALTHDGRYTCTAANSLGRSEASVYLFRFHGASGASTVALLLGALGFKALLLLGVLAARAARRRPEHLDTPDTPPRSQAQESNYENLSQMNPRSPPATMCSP

T2: His-tagged mouse SIGLEC15 protein (mSIGLEC15-His, ACROBiosystems Inc., Cat #: SG5-M52H7) (mouse)
T2 construct: Bought protein; not shown: His tag
T2 chain: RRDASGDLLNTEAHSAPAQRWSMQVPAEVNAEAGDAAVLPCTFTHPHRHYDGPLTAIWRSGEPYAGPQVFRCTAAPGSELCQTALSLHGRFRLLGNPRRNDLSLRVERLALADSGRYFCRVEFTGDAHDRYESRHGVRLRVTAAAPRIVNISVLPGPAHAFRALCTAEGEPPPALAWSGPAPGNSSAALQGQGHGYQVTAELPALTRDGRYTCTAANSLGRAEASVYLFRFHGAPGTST

T3: His-tagged human SIGLEC15 protein (hSIGLEC15-His, Novoprotein Scientific Inc., Cat #: CW37) (human, UniProt Q6ZMC9 20-263)
T3 construct: Bought protein; not shown: His tag
T3 sequence: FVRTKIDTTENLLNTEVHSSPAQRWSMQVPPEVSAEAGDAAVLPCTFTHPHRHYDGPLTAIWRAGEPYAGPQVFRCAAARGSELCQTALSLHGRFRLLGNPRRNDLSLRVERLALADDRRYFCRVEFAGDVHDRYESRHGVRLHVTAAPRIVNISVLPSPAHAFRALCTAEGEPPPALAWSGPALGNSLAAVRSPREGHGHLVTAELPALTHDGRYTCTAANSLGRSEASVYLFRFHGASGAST


Legend:
[1] = target: T1, human SIGLEC15 on CHO-S-hSIGLEC15 cells; assay: flow cytometry (MFI) on CHO-S-hSIGLEC15 cells; antibody sample: 4° C. 7 d
Procedure: (§1) In the activity detection experiment, 30 μL of CHO-S-hSIGLEC15 cells were added to the culture plate, and the antibody to be tested was added in a gradient dilution ([…]), and incubated at 4° C. for 30 min. The plate was washed with PBS, and diluted secondary antibody Anti-hIgG-Fc-Alex Flour 647 (RL1-H) (1:2000) was added, incubated at 4° C. for 30 min. The plate was washed once with PBS and the cells were resuspended for flow cytometry detection. MFI value was derived by FlowJo 7.6.1 analysis to calculate EC50.

[2] = target: human SIGLEC7 on CHO-S-hSIGLEC7 cells (human, UniProt Q9Y286 19-353); assay: flow cytometry, CHO-S cells expressing the target
human SIGLEC7 on CHO-S-hSIGLEC7 cells, sequence (Q9Y286 19-353): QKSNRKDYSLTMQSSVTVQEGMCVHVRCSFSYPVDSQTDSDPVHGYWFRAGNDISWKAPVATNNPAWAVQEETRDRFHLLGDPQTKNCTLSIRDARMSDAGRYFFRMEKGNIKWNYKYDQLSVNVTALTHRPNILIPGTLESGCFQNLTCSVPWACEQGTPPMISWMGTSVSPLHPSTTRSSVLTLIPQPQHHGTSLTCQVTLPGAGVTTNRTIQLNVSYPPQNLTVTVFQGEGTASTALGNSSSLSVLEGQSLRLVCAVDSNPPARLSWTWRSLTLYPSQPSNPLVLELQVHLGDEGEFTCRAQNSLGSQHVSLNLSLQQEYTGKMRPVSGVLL
Procedure: (§2) CHO-S-hSIGLEC15 cells, CHO-S-mSIGLEC15 cells, CHO-S-fasSIGLEC15 cells or CHO-S-dSIGLEC15 cells were transferred to a 96-well plate at a density of 5×10⁴ cells/well respectively. Serially diluted sample anti-SIGLEC15 antibodies were added to the 96-well plate, and incubated at 4° C. for 30 min. Then, the cells were incubated with the secondary antibody anti-hIgG-Fc-Alex Flour 647 (RL1-H) (Jackson ImmunoResearch Laboratories, Inc., 109-606-170) at 4° C. in the dark for 15 minutes before flow cytometry analysis.
(§3) Another similar experiment was performed to determine whether the anti-SIGLEC15 antibodies can bind with other SIGLEC family proteins. CHO-S-hSIGLEC1 cells (expressing hSIGLEC1, SEQ ID NO: 49)), CHO-S-hSIGLEC2 cells (expressing hSIGLEC2, SEQ ID NO: 50), CHO-S-hSIGLEC4 cells (expressing hSIGLEC4, SEQ ID NO: 51), CHO-S-hSIGLEC5 cells (expressing hSIGLEC5, SEQ ID NO: 52), CHO-S-hSIGLEC6 cells (expressing hSIGLEC6, SEQ ID NO: 53), CHO-S-hSIGLEC7 cells (expressing hSIGLEC7, SEQ ID NO: 54), CHO-S-hSIGLEC8 cells (expressing hSIGLEC8, SEQ ID NO: 55), CHO-S-hSIGLEC9 cells (expressing hSIGLEC9, SEQ ID NO: 56), CHO-S-hSIGLEC10 cells (expressing hSIGLEC10, SEQ ID NO: 57), CHO-S-hSIGLEC11 cells (expressing hSIGLEC11, SEQ ID NO: 58), CHO-S-hSIGLEC12 cells (expressing hSIGLEC12, SEQ ID NO: 59), CHO-S-hSIGLEC14 cells (expressing hSIGLEC14, SEQ ID NO: 60) or CHO-S-hSIGLEC16 cells (expressing hSIGLEC16, SEQ ID NO: 61) were used.

[3] = target: human SIGLEC8 on CHO-S-hSIGLEC8 cells (human, UniProt Q9NYZ4 17-363); assay: flow cytometry, CHO-S cells expressing the target
human SIGLEC8 on CHO-S-hSIGLEC8 cells, sequence (Q9NYZ4 17-363): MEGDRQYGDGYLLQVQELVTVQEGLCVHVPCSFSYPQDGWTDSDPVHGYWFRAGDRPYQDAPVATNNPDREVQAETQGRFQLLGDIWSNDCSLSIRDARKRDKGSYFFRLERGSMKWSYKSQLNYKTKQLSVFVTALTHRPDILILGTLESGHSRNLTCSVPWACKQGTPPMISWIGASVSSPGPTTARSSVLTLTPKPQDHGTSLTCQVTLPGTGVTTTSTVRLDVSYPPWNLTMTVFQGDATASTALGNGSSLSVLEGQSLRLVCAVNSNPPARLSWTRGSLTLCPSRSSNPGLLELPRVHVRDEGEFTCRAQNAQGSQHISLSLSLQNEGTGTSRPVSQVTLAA
Procedure: as §2, §3

[4] = target: T2, His-tagged mouse SIGLEC15 protein …; assay: SPR (Biacore 8K), antibody captured on Protein A chip, His-tagged SIGLEC15 as analyte
Procedure: (§4) Purified anti-SIGLEC15 antibodies was captured on the Protein A chip (Series S Sensor Chip Protein A) for the detection. […] The flow rate was 30 μL/min, the binding and dissociation time were set to 180 s and 600 s, respectively. The chip was regenerated after the last injection of each titration with a glycine solution (pH 2.0) at 30 μL/min for 30 seconds.
(§5) Kinetic association rates (kon) and dissociation rates (koff) were obtained simultaneously by fitting the data globally to a 1:1 Langmuir binding model (Karlsson, R. Roos, H. Fagerstam, L. Petersson, B., 1994. Methods Enzymology 6. 99-110) using Biacore™ 8K Evaluation Software 3.0. Affinities were deduced from the quotient of the kinetic rate constants (KD=koff/kon). As a person of ordinary skill in the art would understand, the same method with appropriate adjustments for parameters (e.g., antibody concentration) was performed for each tested antibody.

[5] = target: T3, His-tagged human SIGLEC15 protein …; assay: as above
Procedure: as §4, §5

[6] = target: T1, human SIGLEC15 on CHO-S-hSIGLEC15 cells; assay: flow cytometry (MFI) on CHO-S-hSIGLEC15 cells; antibody sample: 0 d
Procedure: as §1

EC50 [1] | Percentage of Positive Cells [2] | binding result [2] | Percentage of Positive Cells [3] | binding result [3] | Kd [4] | koff [4] | kon [4] | Kd [5] | koff [5] | kon [5] | EC50 [6] | Binder
0.85 µg/mL | 0.4% | no binding | 0.3% | no binding | 2.17 nM | 0.00253 s⁻¹ | 1.17e+06 M⁻¹ s⁻¹ | 0.0846 pM | 2.23e-07 s⁻¹ | 2.63e+06 M⁻¹ s⁻¹ | 1.17 µg/mL | anti-SIGLEC15 antibody 10C9 (antibody, human IgG1, V domains shown) VH: QVQLVQSGAEVKKPGATVKVSCKASGYTFTNYGFSWVRQAPGQGLEWMGWINTYNDNTNYAQKFQGRVTMTTDTSTSTAYMELRSLRSDDTAVYYCARDGLWFGELPHYFDYWGQGTLVTVSS VL: DIQLTQSPLSSPVTLGQPASISCRSSQSLVNSDGETFLSWLQQRPGQPPRLLIYKISNRFSGVPDRFSGSGAGTDFTLKISRVEAEDVGVYYCMQATQFPHTFGQGTKLEIK
0.122 µg/mL | 1% | no binding | 0.6% | no binding | 1.97 nM | 0.00126 s⁻¹ | 639000 M⁻¹ s⁻¹ | 0.164 pM | 6.85e-07 s⁻¹ | 4.19e+06 M⁻¹ s⁻¹ | 0.129 µg/mL | anti-SIGLEC15 antibody 23F4 (antibody, human IgG1, V domains shown) VH: QVQLQQWGAGLLKPSETLSLTCAVYGGSFSGYFWSWIRQPPGKGLEWIGEINHSGSTNYNPSLKSRVTLSVDTSKNQFSLKLSSVTAADTAVYYCAREGDSSSWGNWFDPWGQGTLVTVSS VL: EIVLTQSPGTLSLSPGERATLSCRASQSVSSSYLAWYQQKPGQAPRFLIYGASSRATGIPDRFSGSGSGTDFTLTISRLEPEDFAVYYCQQFGNSPLTFGGGTKVEIK
 | 0.2% | no binding | 0.1% | no binding |  |  |  |  |  |  |  | anti-SIGLEC15 antibody 10A7 (antibody, human IgG1, V domains shown) VH: EVQLVQSGGGLVQPGGSLRLSCAASGFTFSNYEMNWVRQAPGKGLEWISYISNSGSTIYYADSVKGRFTISRDDAKNSLYLQMNSLRAEDTAVYYCAREDYDSSGYYWFDPWGQGTPVTVSS VL: DIQLTQSPSSVSASVGDRVTITCRASQGISSWLAWYQQKPGKAPKLLIYAASSLQSGVPSRFSGSGSGTDFTLTINSLQPEDFATYYCQQTNSFPLTFGGGTKVEIK
